# Laboratory results from the Human Domainome abundance scans (Beltran et al. 2025).
# ± gives the uncertainty stated by the source.
# B1: POU domain, class 3, transcription factor 2, residues 262 to 338; numbered along this chain, P20265 (parent)
# chain: EDTPTSDDLEQFAKQFKQRRIKLGFTQADVGLALGTLYGNVFSQTTICRFEALQLSFKNMCKLKPLLNKWLEEADSS
# Variants of: B1
# Test: abundance fitness (aPCA) (normalised: wild type 0, dead -1); higher = more abundant; growth selection in yeast, the domain comes from the species named
# Conditions: Homo sapiens
row,Variant,abundance fitness
1,EDTPTSDDLEQFAKQFKQRRIKLGFTQADVGLAVGTLYGNVFSQTTICRFEALQLSFKNMCKLKPLLNKWLEEADSS [L34V],-0.329 ± 0.036
2,EDTPTSDDLEQFAKQFKQRRIKLGFTQADVGLALGTLYGNVFSQTTICRFEALQLSFKNMCKLKPLLNKYLEEADSS [W70Y],-0.381 ± 0.099
3,EDTPTSDDLEQFAKQFKQRRIKLGFTQADVGLALGTLYGNVFSQTEICRFEALQLSFKNMCKLKPLLNKWLEEADSS [T46E],-0.035 ± 0.037
4,EDTPTSDDLEQFAKQFKQRRIYLGFTQADVGLALGTLYGNVFSQTTICRFEALQLSFKNMCKLKPLLNKWLEEADSS [K22Y],-0.3 ± 0.093
5,EDEPTSDDLEQFAKQFKQRRIKLGFTQADVGLALGTLYGNVFSQTTICRFEALQLSFKNMCKLKPLLNKWLEEADSS [T3E],-0.218 ± 0.043
6,EDTPTSDDLEQFAKQFKQRRIKLGFTQADVGLALWTLYGNVFSQTTICRFEALQLSFKNMCKLKPLLNKWLEEADSS [G35W],-0.239 ± 0.037
7,EDTPTSDDLEQFAKQFDQRRIKLGFTQADVGLALGTLYGNVFSQTTICRFEALQLSFKNMCKLKPLLNKWLEEADSS [K17D],-0.949 ± 0.12
8,EDTPTSDDLEQFAKQFKQRRIKLGFTQADVGLALGTLYGNVFSQTTFCRFEALQLSFKNMCKLKPLLNKWLEEADSS [I47F],-0.787 ± 0.2
9,EDTPTSDDLEQFAKQFKQRFIKLGFTQADVGLALGTLYGNVFSQTTICRFEALQLSFKNMCKLKPLLNKWLEEADSS [R20F],-1.03 ± 0.41
10,EDTPTSDDLEQFAKQFKQRRIKLGFTQADVGLALGTLYGNVFSQTTICRFEALQLSFKNMCKLKPSLNKWLEEADSS [L66S],-0.423 ± 0.041
11,EDTPQSDDLEQFAKQFKQRRIKLGFTQADVGLALGTLYGNVFSQTTICRFEALQLSFKNMCKLKPLLNKWLEEADSS [T5Q],-0.082 ± 0.041
12,EDTPTSDDLEQFAKQFKQRRIKLGFTQADVGLALGTLYGNVFSQTTICRFEAQQLSFKNMCKLKPLLNKWLEEADSS [L53Q],-0.034 ± 0.049
13,EDTPTSDDLEQFAKQFKQRRIKLGFTQADVGLALGTLYGNVFSQTTICRFEANQLSFKNMCKLKPLLNKWLEEADSS [L53N],-0.022 ± 0.11
14,EDTPTSDDLEQFAKQFKQRRIKLGFTQADVGLALGTLYGNVFSQTTICRFEALQLSFKNMCKLKPLLNKILEEADSS [W70I],-0.64 ± 0.15
15,EDTPTSDDLEQFAKQFKQRRIKLGFTQADVGLALGTLYGNVFSQTTICRFEALQLSFKNMCKLKPLLNKWLEEADDS [S76D],0.042 ± 0.048
16,EDTPTSDDLEQFAKQFKQRRIKLGFTQADVGLALGTLYGNVFSPTTICRFEALQLSFKNMCKLKPLLNKWLEEADSS [Q44P],0.023 ± 0.044
17,EDTPTSDDLMQFAKQFKQRRIKLGFTQADVGLALGTLYGNVFSQTTICRFEALQLSFKNMCKLKPLLNKWLEEADSS [E10M],0.008 ± 0.038
18,EDTPTSDDLEQFAKQFKQRRIKLGFTQADVGLALGELYGNVFSQTTICRFEALQLSFKNMCKLKPLLNKWLEEADSS [T36E],0.056 ± 0.033

row,Variant,abundance fitness
1,EDTPTSDDLEQFAKQFKQRRIKLGFTQADVGLALGTLYGNVFSQTTICRFEALQLGFKNMCKLKPLLNKWLEEADSS [S56G],-0.101 ± 0.03
2,EDTPTSDDYEQFAKQFKQRRIKLGFTQADVGLALGTLYGNVFSQTTICRFEALQLSFKNMCKLKPLLNKWLEEADSS [L9Y],-0.457 ± 0.083
3,EDTPTSDDLEQFAKQFKQRRIKLGFTQADVGLALGTLYGNYFSQTTICRFEALQLSFKNMCKLKPLLNKWLEEADSS [V41Y],-0.12 ± 0.092
4,EDTPTSDDLEQFAKQFKQRRIKLGFTQADVGLALGTLIGNVFSQTTICRFEALQLSFKNMCKLKPLLNKWLEEADSS [Y38I],-0.298 ± 0.07
5,EDTPTSDDLEQFAKQFKQRRIKLGFTQADVGLALGTLYGNVFSQTTICRFEALQLSFKNMCKLKPLLNKWLNEADSS [E72N],-0.094 ± 0.063
6,EDYPTSDDLEQFAKQFKQRRIKLGFTQADVGLALGTLYGNVFSQTTICRFEALQLSFKNMCKLKPLLNKWLEEADSS [T3Y],-0.029 ± 0.063
7,EDTPTSDDLEQFAKQFKQRRIKLGQTQADVGLALGTLYGNVFSQTTICRFEALQLSFKNMCKLKPLLNKWLEEADSS [F25Q],-0.431 ± 0.049
8,EDTPTSDDLEQFAKQFKQRRIKLGFTQADVGLALGTLYGNVFSQTTICRFEALQLSFKNMCKLKNLLNKWLEEADSS [P65N],-0.138 ± 0.17
9,EDTPTSDDLEIFAKQFKQRRIKLGFTQADVGLALGTLYGNVFSQTTICRFEALQLSFKNMCKLKPLLNKWLEEADSS [Q11I],-0.063 ± 0.089
10,EDTPTSDDLEQFAKQFKQRRIKLGFTIADVGLALGTLYGNVFSQTTICRFEALQLSFKNMCKLKPLLNKWLEEADSS [Q27I],-0.222 ± 0.067
11,EDTPTSDDLETFAKQFKQRRIKLGFTQADVGLALGTLYGNVFSQTTICRFEALQLSFKNMCKLKPLLNKWLEEADSS [Q11T],-0.049 ± 0.046
12,EDTPTSDDLEQFAKQFKQRRIKLGFTQADVGLALGTLYGNVFSQTTICRFEALQLSFKNMCKLKPMLNKWLEEADSS [L66M],-0.015 ± 0.042
13,EDTPTSDDLEQFAKQFKQRRIKLGFTQADVGLALGTLYGNVFSQTTICRFEALQLSFKNMCKLKPLLNNWLEEADSS [K69N],-0.298 ± 0.25
14,EDTPTSDDLDQFAKQFKQRRIKLGFTQADVGLALGTLYGNVFSQTTICRFEALQLSFKNMCKLKPLLNKWLEEADSS [E10D],-0.259 ± 0.057
15,EDTPTSDDLEQFAKQFKQRRIKLGFTQADVGLLLGTLYGNVFSQTTICRFEALQLSFKNMCKLKPLLNKWLEEADSS [A33L],-0.304 ± 0.041
16,EDTETSDDLEQFAKQFKQRRIKLGFTQADVGLALGTLYGNVFSQTTICRFEALQLSFKNMCKLKPLLNKWLEEADSS [P4E],0.002 ± 0.045
17,EDTPTSDDLEQFAKQFKQRRIKLGFTQADVGLALATLYGNVFSQTTICRFEALQLSFKNMCKLKPLLNKWLEEADSS [G35A],-0.016 ± 0.033
